# B1: frog NASP.S: frog homologue of sNASP (N1/N2); tested as GST-NASP.Sc dimer/monomer mixture (protein)
# chain: SAEKADGIDIDTEAKRLMGAGQKHLVMKDVRSAVNLFQEASSLLAKQYGETADECAEAFYSYGMSLLELARLENEGTEEKETEEEDVGNLQLAWEMLDLCKTIFKRQQSKEAQLKAAQAHQKLGEVCIESENYSQAVEDFLACLNIQKEHLEEHDRLLAETHYHLGLAYQYSSKHEEAISHFTQSIGVIEKRMDVLTKQLEASVGELVDEVKKEMDELKDLLPDIKEKIEDSKEAQKNATVTEKALKETLVGGSS
# modifications: left off: GST, N-terminal, cleaved
# notes: frog homologue of sNASP (N1/N2); tested as GST-NASP.Sc dimer/monomer mixture
# Tested on: H3–H4 tetramer
# Test: GST pulldown of H3–H4 with frog GST-NASP.Sc
# Type: binding
# Procedure: As mentioned above the GST-tagged sNASPc, frog NASP.Sc and their mutants could not be separated into dimer and monomer peaks during the purification steps, the conformations of these proteins used for pulldowns were mixtures of dimer and monomer. […] All the samples were analyzed with SDS-PAGE.
molecule,measurement,setting,value
B1,Retention of H3 vs H4 in pulldown,in the absence of H3 αN-binding,retained more H3 than H4
same,Pulldown binding to H3–H4,"incubation 0.3 M NaCl, wash […] NaCl",H3 αN- and α3-binding sites are conserved
